B1: Kip3FL^K257A-R262A (natural protein)
chain: MNVPETRQSSIVVAIRVRPFTSMEKTRLVNEASGAEANFPGLGDSSLILPMSNNSDSDIDIDAEEGSTRSKRNSLLRRKVIRPEGIRKIVDCVDDRMLIFDPADRNPLNKVSDQVLNSMRARATKATASSINNSNATNKFSSQRRRHGGEIKFVFDKLFDETSSQARVYKETTSPLLDSVLDGFNSTVFAYGATGCGKTYTVSGTPSQPGIIFLAMEELFNKITDLKDEKDFEISLSYLEIYNERIRDLLKPETPSARLVIAEDTQNHIKVANLSYHHPNTVEDVMDLVVQGNINRTTSPTEANEVSSRSHAVLQIHIMQTNKLVDLTSQHTFATLSIIDLAGSERAAATRNRGIRLHEGANINRSLLALGNCINALCLNDGSRSCHIPYRDSKLTRLLKFSLGGNCKTVMIVCISPSSSHYDETLNTLKYANRAKEIKTKIIRNQQSLSRHVGSYLKMITEQKRQIEELREREEKMISLKLTKYKLNKEKIQLAINECVNRVQQTYAGVETYQVAKTLKSLILCKRRFLQMVKLEVDNLILLFEREESTAAEMQPVISNCRMISGQLYNKIHELEMKFDETDTLSSVIHQVHSIDLNKLREMEDWDETYDLVYLESCLNQISELQRNEILVNSSIMTEKLMSDPGLNSRFKFLSKWLMNRTPNIESIIQDLVHIDEEFESFARTFIANPDSNFTNTNINIINTTAADLAVPAETLQRQNFSQKKVKWTSPDLSPSPMIEPQPELEPELHQDQDAIASEVDVSMQDTTFNEQGPSTPSAPTTAVPRRKMRSSLLTHQSLLATARK
modifications: TMR (HALO-TMR ligand) on the HALO tag

Columns and labels:
[1] = biological target: Kip3_(448)^R351A-R353A (yeast); assay: BLI
[2] = biological target: Kip3_(448) K257A-R262A (yeast); assay: BLI
[3] = biological target: tubulin purified from bovine brains (αβ-tubulin heterodimer) (bovine)

Row | Molecule | fold lower affinity (against Kip3 (448)) [1] | fold weaker affinity (increased Kd) relative to wild-type Kip3 (448) [2] | plus-end dwell time on microtubules, against wild type [3]
1 | tubulin purified from bovine brains (αβ-tubulin heterodimer) (complex) | 1.8 fold | 10 fold | –
2 | B1 | – | – | 2 fold
